Read-outs that look alike come from different tables or passages of the source. Each block holds one binder with its values, some of them ahead of it.
How the values were obtained:
Test in all cases: cell-based or functional assay
human IL-13 [1] = target: T1, human IL-13 (human, UniProt P35225 35-146)
human IL-13 [2] = target: T1, human IL-13; remark: listed apart in the source
recombinant human IL-13 [3] = target: recombinant human IL-13 (human, UniProt P35225 35-146)
recombinant human IL-4 [4] = target: T2, recombinant human IL-4 (human, UniProt P05112 25-153)
T2 sequence (looked up): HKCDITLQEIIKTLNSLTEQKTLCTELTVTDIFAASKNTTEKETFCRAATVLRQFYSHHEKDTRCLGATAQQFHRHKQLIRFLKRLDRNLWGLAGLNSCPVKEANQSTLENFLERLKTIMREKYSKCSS

recombinant human IL-4 [5] = target: T3, recombinant human IL-4 (human, UniProt P05112 25-153); remark: listed apart in the source
T3 sequence (looked up): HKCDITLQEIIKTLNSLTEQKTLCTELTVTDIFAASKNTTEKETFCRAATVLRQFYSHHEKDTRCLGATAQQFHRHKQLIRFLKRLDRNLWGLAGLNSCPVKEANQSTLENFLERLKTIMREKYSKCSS

recombinant human IL-13 [6] = target: recombinant human IL-13 (human, UniProt P35225 35-146); remark: listed apart in the source
[7] = target: T4, recombinant human IL-33 (R&D Systems 3625-IL), reduced with DTT (human, UniProt O95760 112-270, limits assumed)
T4 sequence (looked up): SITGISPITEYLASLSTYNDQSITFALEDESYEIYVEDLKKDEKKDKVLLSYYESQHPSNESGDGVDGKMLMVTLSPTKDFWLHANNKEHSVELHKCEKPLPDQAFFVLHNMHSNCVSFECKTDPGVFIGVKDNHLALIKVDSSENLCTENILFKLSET

human IL-33 mm2 Cys = target: T5, human IL-33 mm2 Cys (human, UniProt O95760 112-270, limits assumed)
T5 sequence (looked up): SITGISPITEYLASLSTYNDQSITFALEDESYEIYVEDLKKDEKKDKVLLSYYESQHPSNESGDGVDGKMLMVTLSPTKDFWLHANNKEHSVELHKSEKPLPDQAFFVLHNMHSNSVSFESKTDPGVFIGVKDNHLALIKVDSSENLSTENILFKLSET

T1 sequence (P35225 35-146 limits assumed, form in doubt): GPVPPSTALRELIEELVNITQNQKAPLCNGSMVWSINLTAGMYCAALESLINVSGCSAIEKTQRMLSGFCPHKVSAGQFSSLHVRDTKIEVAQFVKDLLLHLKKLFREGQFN

- IC50 (median), IL-4 induced CD23 expression on human monocytes (recombinant human IL-4 [5]): 0.0105 nM
- IC50 (median), IL-13 induced CD23 expression on human monocytes (recombinant human IL-13 [6]): 0.0131 nM
B4: IL413TSLP-1037 (other)
heavy: not shown
chain 1: DIQMTQSPSSLSASVGDRVTITCKASESVDHFGWSLVHWYQQKPGKAPKLLIYRASNLESGVPSRFSGSGSGTDFTLTISSLQPEDFATYYCQQSNEDPWTFGGGTKVEIKRTVAAPSVFIFPPSDEQLKSGTASVVCLLNNFYPREAKVQWKVDNALQSGNSQESVTEQDSKDSTYSLSSTLTLSKADYEKHKVYACEVTHQGLSSPVTKSFNRGECGGGGSEVTLRESGPALVKPTQTLTLTCTFSGFSLSNFGEGLSWIRQPPGKGLEWLAHIYWDDDKRYNPSLKSRLTISKDTSRNQVVLTMTNMDPVDTATYYCARRETVFYWYFDVWGQGTTVTVSSASTKGPSVFPLAPSSKSTSGGTAALGCLVKDYFPEPVTVSWNSGALTSGVHTFPAVLQSSGLYSLSSVVTVPSSSLGTQTYICNVNHKPSNTKVDKKVEPKSCEKTHTCPPCPAPEAAGAPSVFLFPPKPKDTLMISRTPEVTCVVVDVSHEDPEVKFNWYVDGVEVHNAKTKPREEQYNSTYRVVSVLTVLHQDWLNGKEYKCKVSNKALPAPIEKTISKAKGQPREPQVYTLPPSREEMTKNQVSLTCEVKGFYPSDIAVEWESNGQPENNYKTTPPVLDSDGSFFLYSKLTVDKSRWQQGNVFSCSVLHEALHSHYTQKSLSLSPGK
light 1: SYVLTQPPSVSVAPGQTARITCGGNNLGSKSVHWYQQKPGQAPVLVVYDDKDRPSWIPERFSGSNSGNTATLTISRGEAGDEADYYCQVWDKSSDHVVFGGGTKLTVLGQPKAAPSVTLFPPSSEELQANKATLVCLISDFYPGAVTVAWKADSSPVKAGVETTTPSKQSNNKYAASSYLSLTPEQWKSHRSYSCQVTHEGSTVEKTVAPTECS
light 2: DIQMTQSPSSLSASVGDRVTITCRASQSVDEEGDSYMNWYQQKPGKAPKLLIYAASNLESGVPSRFSGSGSGTDFTLTISSLQPEDFATYYCQQSNKDPPTFGGGTKVEIKRTVAAPSVFIFPPSDEQLKSGTASVVCLLNNFYPREAKVQWKVDNALQSGNSQESVTEQDSKDSTYSLSSTLTLSKADYEKHKVYACEVTHQGLSSPVTKSFNRGEC
chain 2: EVQLVESGGGLVQPGGSLRLSCAASGFTFSSYAMSWVRQAPGKGLEWVASISSGDTTYYPDSVKGRFTISRDNAKNSLYLQMNSLRAEDTAVYYCARNEGYYFGLTLWGQGTLVTVSSASTKGPSVFPLAPSSKSTSGGTAALGCLVKDYFPEPVTVSWNSGALTSGVHTFPAVLQSSGLYSLSSVVTVPSSSLGTQTYICNVNHKPSNTKVDKKVEPKSC

- IC50 (median), IL-4 induced CD23 expression on human monocytes (recombinant human IL-4 [5]): 0.0128 nM
- IC50 (median), IL-13 induced CD23 expression on human monocytes (recombinant human IL-13 [6]): 0.0129 nM
B5: IL413TSLP-1028 (other)
heavy: not shown
chain 1: DIQMTQSPSSLSASVGDRVTITCKASESVDHFGWSLVHWYQQKPGKAPKLLIYRASNLESGVPSRFSGSGSGTDFTLTISSLQPEDFATYYCQQSNEDPWTFGGGTKVEIKRTVAAPSVFIFPPSDEQLKSGTASVVCLLNNFYPREAKVQWKVDNALQSGNSQESVTEQDSKDSTYSLSSTLTLSKADYEKHKVYACEVTHQGLSSPVTKSFNRGECGGGGSEVTLRESGPALVKPTQTLTLTCTFSGFSLSNFGEGLSWIRQPPGKGLEWLAHIYWDDDKRYNPSLKSRLTISKDTSRNQVVLTMTNMDPVDTATYYCARRETVFYWYFDVWGQGTTVTVSSASTKGPSVFPLAPSSKSTSGGTAALGCLVKDYFPEPVTVSWNSGALTSGVHTFPAVLQSSGLYSLSSVVTVPSSSLGTQTYICNVNHKPSNTKVDKKVEPKSCEKTHTCPPCPAPEAAGAPSVFLFPPKPKDTLMISRTPEVTCVVVDVSHEDPEVKFNWYVDGVEVHNAKTKPREEQYNSTYRVVSVLTVLHQDWLNGKEYKCKVSNKALPAPIEKTISKAKGQPREPQVYTLPPSREEMTKNQVSLTCEVKGFYPSDIAVEWESNGQPENNYKTTPPVLDSDGSFFLYSKLTVDKSRWQQGNVFSCSVLHEALHSHYTQKSLSLSPGK
light 1: SYVLTQPPSVSVAPGQTARITCGGNNLGSKSVHWYQQKPGQAPVLVVYDDSDRPSWIPERFSGSNSGNTATLTISRGEAGDEADYYCQVWDSSSKHVVFGGGTKLTVLGQPKAAPSVTLFPPSSEELQANKATLVCLISDFYPGAVTVAWKADSSPVKAGVETTTPSKQSNNKYAASSYLSLTPEQWKSHRSYSCQVTHEGSTVEKTVAPTECS
light 2: DIQMTQSPSSLSASVGDRVTITCRASQSVDEEGDSYMNWYQQKPGKAPKLLIYAASNLESGVPSRFSGSGSGTDFTLTISSLQPEDFATYYCQQSNKDPPTFGGGTKVEIKRTVAAPSVFIFPPSDEQLKSGTASVVCLLNNFYPREAKVQWKVDNALQSGNSQESVTEQDSKDSTYSLSSTLTLSKADYEKHKVYACEVTHQGLSSPVTKSFNRGEC
chain 2: EVQLVESGGGLVQPGGSLRLSCAASGFTFSSYAMSWVRQAPGKGLEWVASISSGDTTYYPDSVKGRFTISRDNAKNSLYLQMNSLRAEDTAVYYCARNEGYYFGLTLWGQGTLVTVSSASTKGPSVFPLAPSSKSTSGGTAALGCLVKDYFPEPVTVSWNSGALTSGVHTFPAVLQSSGLYSLSSVVTVPSSSLGTQTYICNVNHKPSNTKVDKKVEPKSC

- IC50 [pM] versus human reduced IL-33 (R&D), Experiment 1 (HEK-Blue SEAP) [7]: ~677 pM
- IC50 [pM] versus human reduced IL-33 (R&D), Experiment 2 (HEK-Blue SEAP) [7]: ~1240 pM
- IC50 [pM] versus human IL-33 mm2 Cys (HEK-Blue SEAP) (human IL-33 mm2 Cys): 237 pM
B6: IL33-0216 (antibody, human IgG1, kappa, V domains shown)
VH: EVQLVESGGGLVQPGGSLRLSCAASGFTFSSYWMYWVRQAPGKGLEWVAAITPNAGEDYYPESVKGRFTISRDNAKNSLYLQMNSLRAEDTAVYYCARGHYYYTSYSLGYWGQGTLVTVSS
VL: DIQMTQSPSSLSASVGDRVTITCKASQNIDKHLDWYQQKPGKAPKLLIYFTNNLQTGVPSRFSGSGSGTDFTLTISSLQPEDFATYYCFQYNQGWTFGGGTKVEIKR

Second part, the binder before the results:

B1: IL13-1307 (antibody, IgG1, V domains shown)
VH: EVQLVESGGGLVQPGGSLRLSCAASGFTFSSYAMSWVRQAPGKGLEWVASISSGDTTYYPDSVKGRFTISRDNAKNSLYLQMNSLRAEDTAVYYCARLDGYYFGFPYWGQGTLVTVSS
VL: DIQMTQSPSSLSASVGDRVTITCKASESVDHSGSSLMHWYQQKPGKAPKLLIYRASNLESGVPSRFSGSGSGTDFTLTISSLQPEDFATYYCQQSNEDPWTFGGGTKVEIK
- CD23 IC50 [pM] (human IL-13 [1]): 214 pM
- pSTAT6 IC50 [pM] (human IL-13 [1]): 225 pM
- CD23: Fold bioactivity relative to IL13-0001 (human IL-13 [2]): 0.03 fold
- CD23: Fold bioactivity relative to IL13-1307 (human IL-13 [2]): 1 fold
- CD23 IC50 [pM] (human IL-13 [2]): 306 pM
- pSTAT6: Fold bioactivity relative to IL13-0001 (human IL-13 [2]): 0.7 fold
- pSTAT6: Fold bioactivity relative to IL13-1307 (human IL-13 [2]): 1 fold
- pSTAT6 IC50 [pM] (human IL-13 [2]): 140 pM

B2: IL13-0001 (antibody, human IgG1, kappa, V domains shown)
VH: EVQLVESGGGLVQPGGSLRLSCAASGFTFSSYAMSWVRQAPGKGLEWVASISSGDTTYYPDSVKGRFTISRDNAKNSLYLQMNSLRAEDTAVYYCARNEGYYFGLTLWGQGTLVTVSS
VL: DIQMTQSPSSLSASVGDRVTITCKASESVDHFGWSLVHWYQQKPGKAPKLLIYRASNLESGVPSRFSGSGSGTDFTLTISSLQPEDFATYYCQQSNEDPWTFGGGTKVEIKR
- a-hIL-13 bioassay (IC50, pM) (recombinant human IL-13 [3]): 4.83 pM

B3: IL4-0002 (antibody, human IgG1, kappa)
heavy: EVTLRESGPALVKPTQTLTLTCTFSGFSLSNFGEGLSWIRQPPGKGLEWLAHIYWDDDKRYNPSLKSRLTISKDTSRNQVVLTMTNMDPVDTATYYCARRETVFYWYFDVWGQGTTVTVSSASTKGPSVFPLAPSSKSTSGGTAALGCLVKDYFPEPVTVSWNSGALTSGVHTFPAVLQSSGLYSLSSVVTVPSSSLGTQTYICNVNHKPSNTKVDKKVEPKSCDKTHTCPPCPAPEAAGAPSVFLFPPKPKDTLMISRTPEVTCVVVDVSHEDPEVKFNWYVDGVEVHNAKTKPREEQYNSTYRVVSVLTVLHQDWLNGKEYKCKVSNKALPAPIEKTISKAKGQPREPQVYTLPPSREEMTKNQVSLTCLVKGFYPSDIAVEWESNGQPENNYKTTPPVLDSDGSFFLYSKLTVDKSRWQQGNVFSCSVMHEALHNHYTQKSLSLSPGK
light: DIQMTQSPSSLSASVGDRVTITCKASQSVDEDGDSYMNWYQQKPGKAPKLLIYAASNLESGVPSRFSGSGSGTDFTLTISSLQPEDFATYYCQQSNEDPPTFGGGTKVEIKRTVAAPSVFIFPPSDEQLKSGTASVVCLLNNFYPREAKVQWKVDNALQSGNSQESVTEQDSKDSTYSLSSTLTLSKADYEKHKVYACEVTHQGLSSPVTKSFNRGEC
- a-hIL-4 bioassay IC50, pM) (recombinant human IL-4 [4]): 3.42 pM
